From publication PMC4800742

Target: T1, RanGAP1 (human, UniProt P46060 1-587)
T1 sequence: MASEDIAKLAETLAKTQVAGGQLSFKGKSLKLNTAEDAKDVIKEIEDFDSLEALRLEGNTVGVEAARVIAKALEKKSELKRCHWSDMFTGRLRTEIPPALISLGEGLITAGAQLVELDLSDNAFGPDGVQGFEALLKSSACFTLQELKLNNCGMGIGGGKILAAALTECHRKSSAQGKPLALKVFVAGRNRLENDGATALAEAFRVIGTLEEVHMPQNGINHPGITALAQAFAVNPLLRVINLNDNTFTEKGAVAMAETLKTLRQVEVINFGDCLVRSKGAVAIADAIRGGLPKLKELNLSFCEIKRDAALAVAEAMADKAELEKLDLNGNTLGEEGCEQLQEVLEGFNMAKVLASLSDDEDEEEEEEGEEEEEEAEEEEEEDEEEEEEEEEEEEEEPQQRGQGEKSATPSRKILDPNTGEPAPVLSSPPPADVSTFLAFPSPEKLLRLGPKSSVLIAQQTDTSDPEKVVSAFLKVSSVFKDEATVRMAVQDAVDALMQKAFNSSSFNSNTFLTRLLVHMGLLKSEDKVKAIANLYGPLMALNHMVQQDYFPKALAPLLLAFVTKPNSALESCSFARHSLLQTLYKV
Assay: EMSA

Question: For GGGGCCGGGGCCGGGGCCGGGGCC (structured_RNA) [(G4C2)4 G-quadruplex], which “apparent K (half saturation)” value is on record?
Answer: Its value is 162 nM.
